Data as given in patent publication US20110319338A1, “PEPTIDES THAT BIND EUKARYOTIC TRANSLATION INITIATION FACTOR 4E” (The Board of Regents of the University of Texas System, priority 2008, published 2011).
Square brackets hold non-standard residues; d marks the D form. Ends that are not written are not given here.

Molecular target: T1, eIF4E (Homo sapiens, UniProt P06730)
T1 construct: endogenous in cells; host or cells: OVCAR-3 cell lysate
Assay: Streptavidin-agarose pull-down of biotinylated peptide from OVCAR-3 cell lysate, Western blot with eIF4E antibody
Type: binding
Details: biotinylated peptide 3 micromoles per liter, 250 micrograms OVCAR-3 cell lysate
Method: FIGS. 1A-1G. 4EBP peptides bind eIF4E and inhibit binding of eIF4E to eIF4G. (FIG. 1A) Sequences of peptides comprising residues 49 to 68 of 4EBP1 and 4EBP2. (FIG. 1B) Biotinylated peptides (3 micromoles per liter) were incubated with 250 micrograms of OVCAR-3 cell lysate. Peptides were pulled-down using streptavidin-agarose. Precipitates (P) and supernatants (S) were analyzed by Western blot using eIF4E antibody. In (FIG. 1C), immunoprecipitation was performed using eIF4E antibody, and Western blot performed using eIF4G antibody. (FIG. 1D) Sequences of wild-type and mutant 4EBP peptides fused to TAT (mutant residues are highlighted). (FIG. 1E) OVCAR-3 cells were treated with biotinylated peptides (3 micromoles per liter, final concentration) for 16 hours. Internalized peptides were detected by staining fixed cells with Texas Red-conjugated streptavidin. Nuclei were visualized by staining with 4′,6-Diamidino-2-Phenylindole (DAPI). (FIGS. 1F and 1G) OVCAR-3 cell lysates were incubated with peptides as described for FIG. 1B. In (FIG. 1F), immunoprecipitation was performed using streptavidin-agarose and Western blot performed using eIF4E antibody. In (FIG. 1G), immunoprecipitation was performed using eIF4E antibody, and Western blot performed using eIF4G antibody.
FIGS. 3A-3H. Uptake, binding and inhibitory effects of [DLys6]GnRH-4EBP fusion peptides. (FIG. 3A) Sequences of [DLys6]GnRH, and wild-type and mutant 4EBP1 peptides fused to the agonist. (FIG. 3B) Western blot of GnRH-RI levels in OVCAR-3, ES-2, MDA-MB-231, BJ, HUVEC and SKOV3 cells. (FIG. 3C) Detection of biotinylated peptides in OVCAR-3 and SKOV3 by Texas Red-conjugated streptavidin at 16 hours after peptide addition (3 micromoles per liter). In (FIGS. 3D and 3E), biotinylated peptides were incubated with OVCAR-3 cell lysate as described in FIG. 1. In (FIG. 3D), peptide was pulled down using streptavidin-agarose. Precipitates (P) and supernatants (S) were analyzed by Western blot using eIF4E antibody. In (FIG. 3E), immunoprecipitation was performed using eIF4E antibody, and Western blot performed using eIF4G antibody. (FIG. 3F) R-Luc and F-Luc activities were assayed in ES-2-DualLuc cells at 6 hours after addition of the indicated concentrations of peptides, and are expressed relative to the respective luciferase activities in cells incubated without peptide. Shown are results of triplicate assays performed independently two times, and the statistical significance of differences in relative R-Luc and F-Luc activities in cells treated with peptide at a concentration of 10 micromoles per liter (FIG. 3G) Cells of GnRH-RI-positive and -negative lines were treated with the indicated concentrations of peptides. […]

T1 sequence (P06730 whole entry): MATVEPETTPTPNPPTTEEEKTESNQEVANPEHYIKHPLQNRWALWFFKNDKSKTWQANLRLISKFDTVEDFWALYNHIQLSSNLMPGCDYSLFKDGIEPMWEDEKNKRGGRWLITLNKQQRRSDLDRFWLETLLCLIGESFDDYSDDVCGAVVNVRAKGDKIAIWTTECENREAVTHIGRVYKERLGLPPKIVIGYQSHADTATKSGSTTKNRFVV

Substance: [DLys6]GnRH: GnRH agonist with a D-amino acid substitution at position 6; GnRH-RI-targeting moiety (QHWSY[dK]LRPG; not fully specified (residue 1, C-terminus); ends and bridges not checked)
- binding of peptide to eIF4E: did not bind
